The values below come from article PMC9860317, “Regulation of the DEAH/RHA helicase Prp43 by the G-patch factor Pfa1” (Proceedings of the National Academy of Sciences of the …, 2022).

The target in data set [1] is Chaetomium thermophilum Prp43 with fluorescence labelling sites at C170 (RecA1) and C303 (RecA2), Cy3/Cy5-labelled (Chaetomium thermophilum).
The target in data set [2] is scPrp43 (Saccharomyces cerevisiae S288c) (UniProt P53131). Nature of the data set: smFRET (TIRF). As to conditions: smFRET: 50 mM Tris-HCl pH 7.5, 150 mM KCl, 3 mM MgCl2 (TIRF buffer B; imaging in TIRF buffer C), FP: 6 nM labeled ssRNA, buffer and temperature not in material.
Data set [3] addresses T1, scPrp43;scPfa1(gp) (Saccharomyces cerevisiae S288c;Saccharomyces cerevisiae) (UniProt P53131+P53866). Briefly: smFRET (TIRF). As to conditions: smFRET: 50 mM Tris-HCl pH 7.5, 150 mM KCl, 3 mM MgCl2 (TIRF buffer B; imaging in TIRF buffer C), FP: 6 nM labeled ssRNA, buffer and temperature not in material.
Data set [4] deals with scPrp43 (Saccharomyces cerevisiae S288c) (UniProt P53131). Briefly: fluorescence polarization. As to conditions: smFRET: 50 mM Tris-HCl pH 7.5, 150 mM KCl, 3 mM MgCl2 (TIRF buffer B; imaging in TIRF buffer C), FP: 6 nM labeled ssRNA, buffer and temperature not in material. (In general: In fluorescence polarisation assays a small probe gives low polarisation when free and higher when bound to something large.)

In data set [5] the target is T1, scPrp43;scPfa1(gp) (Saccharomyces cerevisiae S288c;Saccharomyces cerevisiae). Nature of the data set: fluorescence polarization. As to conditions: smFRET: 50 mM Tris-HCl pH 7.5, 150 mM KCl, 3 mM MgCl2 (TIRF buffer B; imaging in TIRF buffer C), FP: 6 nM labeled ssRNA, buffer and temperature not in material.

Several values for one entry are separate records, joined by “and”; a condition that tells them apart may be missing. Equal values may be shown once.

By Kd is commonly meant the equilibrium constant for the complex coming apart. High values mean a looser complex, low ones a tighter complex.

In data set [1], “G-patch motif of Chaetomium thermophilum Pfa1 (domain or fragment)” showed an ATP turnover (kcat) of the Prp43–Pfa1(gp) complex with ssRNA, coupled enzymatic assay of 9.6 s⁻¹ and an ATP turnover (kcat) of the Prp43–Pfa1(gp) complex without ssRNA, coupled enzymatic assay (Prp43 alone: kcat = 0.01 s^-1) of 0.4 s⁻¹.
As to “GCGCCUACGCCACCAGCUCCGUAGGCGCAGGAGCGCCUACGGAGCUGGUGGCGUAGGCGCAAAAAAAAAAAAAAAUAAAAAAAAAAAAAAAAAAAA [smFRET stem-loop RNA probe with 3' overhang]”, the binding signal in data set [2] (0.5 uM Prp43, 2 mM AMPPNP) amounted to 36 % bound; in data set [2] (5 uM Prp43, apo (main text gives 24%)), 21 % bound; in data set [3] (0.5 uM Prp43, 2.5 uM Pfa1(gp), nucleotide-free), 88 % bound; in data set [3] (ADP, koff 0.45 s-1), 52 % bound. In data set [3] (2 uM ATP, table row label cut, matched by FRET values), the binding signal (% bound (plus 20% partially unwound)) was 55.
On to ssRNA (fluorescence polarization), for which the Kd in data set [4] (ADP) is greater than 100000 nM; in data set [4] (AMPPNP), 400 nM; in data set [4] (nucleotide-free), 7000 nM; in data set [5] (nucleotide-free, with Pfa1(gp)), 30 nM; in data set [5], 80 nM and 500 nM.
